# Assay results taken from the supplement of paper PMC9112550, “Optimization of the antimicrobial peptide Bac7 by deep mutational scanning” (BMC Biology, 2022).
# System: Escherichia coli TOP10
# Assay: shrunken log2 fold change of peptide-encoding DNA abundance (4.5 h post-induction vs induction); higher = less antimicrobial activity (less host growth inhibition)
# Conditions: time post-induction: 4.5 h; library: site-saturation at positions 5, 18, 19, 20
# 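Also: peptides expressed intracellularly from a pBAD plasmid library in pooled LB shake-flask culture, induced with 0.3% L-arabinose, DNA abundance read by NGS, three biological replicates, DESeq2 with apeglm shrinkage.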
row,Sequence,shrunken log2 fold change
1,RRIRYRPPRLPRPRPRPEWHPRP,-0.186
2,RRIRRRPPRLPRPRPRPFNVPRP,-0.264
3,RRIRCRPPRLPRPRPRPDHDPRP,-0.265
4,RRIRIRPPRLPRPRPRPMKIPRP,-0.167
5,RRIRQRPPRLPRPRPRPKRNPRP,0.29
6,RRIRIRPPRLPRPRPRPATAPRP,0.0897
7,RRIRMRPPRLPRPRPRPTMSPRP,-0.148
8,RRIRIRPPRLPRPRPRPYAHPRP,-0.184
9,RRIRIRPPRLPRPRPRPFDKPRP,-0.177
10,RRIRLRPPRLPRPRPRPIQWPRP,0.146
11,RRIRSRPPRLPRPRPRPCNVPRP,-0.175
12,RRIRMRPPRLPRPRPRPEQIPRP,0.527
13,RRIRMRPPRLPRPRPRPPAPPRP,2.01
14,RRIRWRPPRLPRPRPRPSVAPRP,0.491
15,RRIRNRPPRLPRPRPRPYHIPRP,-0.366
16,RRIRLRPPRLPRPRPRPMRQPRP,0.181
17,RRIRKRPPRLPRPRPRPDKFPRP,0.126
18,RRIRSRPPRLPRPRPRPPNNPRP,-0.404
19,RRIRIRPPRLPRPRPRPYQKPRP,-0.243
20,RRIRERPPRLPRPRPRPQMNPRP,-0.276
21,RRIRLRPPRLPRPRPRPYWWPRP,0.0346
22,RRIRARPPRLPRPRPRPCMNPRP,-0.0756
23,RRIRVRPPRLPRPRPRPACKPRP,-0.0847
24,RRIRVRPPRLPRPRPRPEAGPRP,0.553
25,RRIRKRPPRLPRPRPRPTANPRP,0.863

row,Sequence,shrunken log2 fold change
1,RRIRRRPPRLPRPRPRPFFYPRP,0.0607
2,RRIRIRPPRLPRPRPRPKELPRP,-0.563
3,RRIRLRPPRLPRPRPRPTHFPRP,0.362
4,RRIRMRPPRLPRPRPRPFPLPRP,-0.0414
5,RRIRDRPPRLPRPRPRPSGSPRP,-0.00469
6,RRIRYRPPRLPRPRPRPKSWPRP,-0.00323
7,RRIRNRPPRLPRPRPRPLFPPRP,0.643
8,RRIRGRPPRLPRPRPRPYQTPRP,0.0825
9,RRIRRRPPRLPRPRPRPGQKPRP,-0.0196
10,RRIRGRPPRLPRPRPRPTADPRP,2.65
11,RRIRARPPRLPRPRPRPLWDPRP,0.022
12,RRIRNRPPRLPRPRPRPLCTPRP,-0.194
13,RRIRERPPRLPRPRPRPRERPRP,0.389
14,RRIRSRPPRLPRPRPRPAHDPRP,0.162
15,RRIRVRPPRLPRPRPRPAYRPRP,-0.0828
16,RRIRRRPPRLPRPRPRPDGEPRP,-0.0341
17,RRIRPRPPRLPRPRPRPVYGPRP,-0.486
18,RRIRDRPPRLPRPRPRPDQSPRP,0.0019
19,RRIRHRPPRLPRPRPRPTYMPRP,-0.435
20,RRIRQRPPRLPRPRPRPWIKPRP,-0.0062
21,RRIRGRPPRLPRPRPRPSDFPRP,0.0231
22,RRIRDRPPRLPRPRPRPSSMPRP,-0.292
23,RRIRCRPPRLPRPRPRPGFDPRP,0.104
24,RRIRTRPPRLPRPRPRPFWWPRP,0.299
25,RRIRHRPPRLPRPRPRPKENPRP,-0.0597

row,Sequence,shrunken log2 fold change
1,RRIRVRPPRLPRPRPRPFANPRP,-0.0887
2,RRIRARPPRLPRPRPRPMTGPRP,0.0159
3,RRIRLRPPRLPRPRPRPKPKPRP,0.607
4,RRIRMRPPRLPRPRPRPNHLPRP,-0.0575
5,RRIRKRPPRLPRPRPRPYTKPRP,-0.138
6,RRIRCRPPRLPRPRPRPHFVPRP,-0.23
7,RRIRVRPPRLPRPRPRPLHNPRP,-0.143
8,RRIRDRPPRLPRPRPRPLCEPRP,0.715
9,RRIRSRPPRLPRPRPRPMWMPRP,-0.344
10,RRIRWRPPRLPRPRPRPLPHPRP,0.188
11,RRIRGRPPRLPRPRPRPVQWPRP,0.171
12,RRIRPRPPRLPRPRPRPCAVPRP,-0.418
13,RRIRYRPPRLPRPRPRPFLPPRP,-0.557
14,RRIRMRPPRLPRPRPRPFNPPRP,-1.51
15,RRIRLRPPRLPRPRPRPLMQPRP,-0.0571
16,RRIRTRPPRLPRPRPRPSGLPRP,-0.573
17,RRIRVRPPRLPRPRPRPQGEPRP,-0.227
18,RRIRSRPPRLPRPRPRPCPKPRP,0.355
19,RRIRQRPPRLPRPRPRPHDKPRP,-0.773
20,RRIRQRPPRLPRPRPRPWDVPRP,-0.0187
21,RRIRQRPPRLPRPRPRPRPHPRP,0.483
22,RRIRPRPPRLPRPRPRPWFTPRP,-0.0465
23,RRIRNRPPRLPRPRPRPYKCPRP,-0.13
24,RRIRCRPPRLPRPRPRPHCYPRP,-0.135
25,RRIRPRPPRLPRPRPRPVTQPRP,0.2

row,Sequence,shrunken log2 fold change
1,RRIRRRPPRLPRPRPRPQRYPRP,-0.15
2,RRIRQRPPRLPRPRPRPEPTPRP,0.877
3,RRIRGRPPRLPRPRPRPAIWPRP,0.396
4,RRIRDRPPRLPRPRPRPGVMPRP,0.521
5,RRIRDRPPRLPRPRPRPVEGPRP,0.211
6,RRIRVRPPRLPRPRPRPGLKPRP,0.049
7,RRIRIRPPRLPRPRPRPWWVPRP,-0.077
8,RRIRHRPPRLPRPRPRPIHMPRP,-0.141
9,RRIRCRPPRLPRPRPRPQVGPRP,-0.0906
10,RRIRLRPPRLPRPRPRPETGPRP,-0.0316
11,RRIRVRPPRLPRPRPRPWSPPRP,-0.00502
12,RRIRYRPPRLPRPRPRPIVGPRP,0.1
13,RRIRRRPPRLPRPRPRPRDIPRP,0.0666
14,RRIRPRPPRLPRPRPRPWTEPRP,-0.204
15,RRIRGRPPRLPRPRPRPKHFPRP,-0.121
16,RRIRVRPPRLPRPRPRPEPDPRP,0.242
17,RRIRFRPPRLPRPRPRPEDHPRP,0.000834
18,RRIRFRPPRLPRPRPRPATGPRP,1.21
19,RRIRFRPPRLPRPRPRPFFKPRP,-0.251
20,RRIRSRPPRLPRPRPRPHYVPRP,-0.488
21,RRIRTRPPRLPRPRPRPMVDPRP,-0.00822
22,RRIRTRPPRLPRPRPRPAHQPRP,3.43
23,RRIRTRPPRLPRPRPRPIESPRP,0.0133
24,RRIRKRPPRLPRPRPRPWHFPRP,0.169
25,RRIRFRPPRLPRPRPRPIATPRP,-0.0109

row,Sequence,shrunken log2 fold change
1,RRIRYRPPRLPRPRPRPEHTPRP,-0.303
2,RRIRNRPPRLPRPRPRPLTSPRP,-0.0977
3,RRIRCRPPRLPRPRPRPSGMPRP,-0.35
4,RRIRCRPPRLPRPRPRPPAIPRP,0.532
5,RRIRGRPPRLPRPRPRPIYEPRP,-0.0413
6,RRIRLRPPRLPRPRPRPECCPRP,0.338
7,RRIRPRPPRLPRPRPRPIREPRP,0.31
8,RRIRCRPPRLPRPRPRPIDHPRP,-1.01
9,RRIRCRPPRLPRPRPRPESGPRP,0.0145
10,RRIRARPPRLPRPRPRPQCWPRP,0.173
11,RRIRARPPRLPRPRPRPSAMPRP,0.38
12,RRIRRRPPRLPRPRPRPVFAPRP,0.455
13,RRIRDRPPRLPRPRPRPPLWPRP,0.228
14,RRIRSRPPRLPRPRPRPIIYPRP,-0.182
15,RRIRIRPPRLPRPRPRPEGKPRP,-0.0199
16,RRIRYRPPRLPRPRPRPSLGPRP,-0.297
17,RRIRRRPPRLPRPRPRPPLRPRP,0.964
18,RRIRDRPPRLPRPRPRPKLGPRP,-0.000429
19,RRIRGRPPRLPRPRPRPRVNPRP,0.394
20,RRIRQRPPRLPRPRPRPWLPPRP,-0.181
21,RRIRSRPPRLPRPRPRPEYHPRP,-0.282
22,RRIRGRPPRLPRPRPRPMNAPRP,0.493
23,RRIRMRPPRLPRPRPRPTLKPRP,0.501
24,RRIRKRPPRLPRPRPRPLWAPRP,0.452
25,RRIRDRPPRLPRPRPRPAMSPRP,0.184

row,Sequence,shrunken log2 fold change
1,RRIRNRPPRLPRPRPRPIHPPRP,0.135
2,RRIRYRPPRLPRPRPRPVCRPRP,-0.0607
3,RRIRMRPPRLPRPRPRPLNTPRP,0.163
4,RRIRQRPPRLPRPRPRPKGYPRP,-0.00146
5,RRIRTRPPRLPRPRPRPKDCPRP,0.0164
6,RRIRVRPPRLPRPRPRPWKSPRP,0.0332
7,RRIRKRPPRLPRPRPRPMENPRP,0.0428
8,RRIRIRPPRLPRPRPRPFEEPRP,-0.569
9,RRIRSRPPRLPRPRPRPMALPRP,0.213
10,RRIRFRPPRLPRPRPRPWLSPRP,-0.129
11,RRIRSRPPRLPRPRPRPNENPRP,-0.118
12,RRIRMRPPRLPRPRPRPWTEPRP,0.0475
13,RRIRNRPPRLPRPRPRPDMNPRP,-0.0522
14,RRIRDRPPRLPRPRPRPGHFPRP,0.0123
15,RRIRSRPPRLPRPRPRPAPTPRP,0.732
16,RRIRTRPPRLPRPRPRPFVMPRP,-0.277
17,RRIRDRPPRLPRPRPRPCWTPRP,0.122
18,RRIRFRPPRLPRPRPRPIPVPRP,0.0949
19,RRIRWRPPRLPRPRPRPAWNPRP,0.155
20,RRIRNRPPRLPRPRPRPSVYPRP,-0.172
21,RRIRDRPPRLPRPRPRPCTPPRP,-0.153
22,RRIRTRPPRLPRPRPRPVNHPRP,-0.0862
23,RRIRPRPPRLPRPRPRPLPQPRP,0.286
24,RRIRPRPPRLPRPRPRPGGSPRP,0.166
25,RRIRKRPPRLPRPRPRPYQVPRP,0.0805
